The values below are quoted from earlier work in paper PMC10769511.

For this series, the target named is histone H3K4me3 peptide (Homo sapiens) (UniProt P68431).

Consider PHF2 PHD-Jumonji (from UniProt O75151), for which the dissociation constant Kd was 160 nM.

Usually Kd stands for the constant that tells how readily two partners part at equilibrium.
